Assay results as given in patent US12673101B2, “Varicella zoster” (ADJUVANCE TECHNOLOGIES, INC., priority 2019, dated 2026).
Structures can show the parent of a compound that is named as a salt.

Key:
Assay type in all cases: in vivo, Varicella zoster virus
gE antigen [1] = test: Mice immunized with gE, TQL-1055 choline salt with or without PHAD liposomes (Example 2): anti-gE IgG endpoint titers
Protocol: The impact of TQL-1055 choline salt (Compound I-4 choline salt) on antibody titers induced by gE antigen was tested. Mice were immunized with gE (5 mcg) alone, gE (5 mcg) with liposomes containing PHAD (5 mcg), gE (5 mcg) with liposomes containing PHAD (5 mcg) and TQL-1055 choline salt (five groups: 5 mcg, 10 mcg, 20 mcg, 40 mcg, 80 mcg), and gE (5 mcg) with TQL-1055 choline salt (five groups: 5 mcg, 10 mcg, 20 mcg, 40 mcg, 80 mcg). Mice were immunized at Day 0 and Day 14. Groups were bled at Day 13 (post Dose 1) and Day 28 (post Dose 2) for serum analysis.

gE antigen [2] = test: Mice immunized with gE and liposomal adjuvant (Example 1): gE-specific total IgG titers
Protocol: (§1) The impact of TQL-1055 free acid (Compound I-4 free acid) on antibody titers induced by gE antigen was tested. Mice were immunized with gE (5 mcg) alone, gE (5 mcg) with blank liposomes, gE (5 mcg) with liposomes containing PHAD (7.5 mcg), gE (5 mcg) with liposomes containing PHAD (7.5 mcg) and TQL-1055 free acid (four groups: 5 mcg, 15 mcg, 30 mcg, 50 mcg), and gE (5 mcg) with liposomes containing MPL® (7.5 mcg) and QS-21 (5 mcg). Mice were immunized at Day 0 and Day 14. Groups were bled at Day 14 (post Dose 1) and Day 28 (post Dose 2) for serum analysis for anti-gE specific antibody response.
(§2) Log 10 transformed GMT were compared using One-way ANOVA. Groupwise comparisons were made and p-values adjusted for multiple comparisons with Tukey's post-hoc test. Groups 1 and 2 were excluded from the analysis. Family-wise α=0.05.

gE antigen [3] = test: Mice immunized with gE and liposomal adjuvant (Example 1): gE-specific total IgG1 titers
Protocol: as §1, §2

gE antigen [4] = test: Mice immunized with gE and liposomal adjuvant (Example 1): gE-specific total IgG2c titers; details: post dose 1, 50 mcg TQL-1055 free acid with PHAD liposomes
Protocol: as §1, §2

gE antigen [5] = test: Mice immunized with gE, oil-in-water emulsion (L2), TQL-1055 and PHAD liposomes (Example 3): anti-gE IgG endpoint titers; details: mice immunized Day 0 and Day 14
Protocol: The impact of an oil-in-water emulsion containing TQL-1055 free acid (Compound I-4 free acid), TQL-1055 choline salt (Compound I-4 choline salt), PHAD liposomes, and combinations thereof on antibody titers induced by gE antigen was tested. Mice were immunized with PBS alone, gE (5 mcg) alone, gE (5 mcg) in an oil-in-water emulsion (L2), gE (5 mcg) and TQL-1055 choline salt (three groups: 5 mcg, 30 mcg, 100 mcg), gE (5 mcg) in an oil-in-water emulsion (L2) with TQL-1055 free acid (three groups: 5 mcg, 30 mcg, 100 mcg), gE (5 mcg) in an oil-in-water emulsion (L2) with TQL-1055 free acid (three groups: 5 mcg, 30 mcg, 100 mcg) and PHAD liposomes (20 mcg), and gE (5 mcg) with PHAD liposomes (20 mcg). Mice were immunized at Day 0 and Day 14. Groups were bled at Day 13 (post Dose 1) and Day 28 (post Dose 2) for serum analysis.

[6] = mice immunized Day 0 and Day 14, serum Day 28 (post Dose 2)

CC1O[C@@H](OC2C(O)[C@@H](NC(=O)CCCCCCCCCCC(=O)O)C(CO)O[C@H]2OC(=O)[C@]23CCC(C)(C)CC2C2=CCC4C5(C)CC[C@H](O)C(C)(C=O)C5CCC4(C)[C@]2(C)CC3O)C(O)C(O)[C@H]1O[C@@H]1OC[C@@H](O)C(O)C1O (stereo partly shown) [TQL-1055 choline salt]
titers compared to groups including TQL-1055 free acid (Example 1) (gE antigen [1]; after the first dose): trend to higher titers
titers compared to groups including TQL-1055 free acid (Example 1) (gE antigen [1]; after the second dose): trend to higher titers

CC1O[C@@H](OC2C(O)[C@@H](NC(=O)CCCCCCCCCCC(=O)O)C(CO)O[C@H]2OC(=O)[C@]23CCC(C)(C)CC2C2=CCC4C5(C)CC[C@H](O)C(C)(C=O)C5CCC4(C)[C@]2(C)CC3O)C(O)C(O)[C@H]1O[C@@H]1OC[C@@H](O)C(O)C1O (stereo partly shown) [TQL-1055 free acid]
gE-specific total IgG GMT compared to Group 7 (gE antigen [2]; mice, post dose 2, 50 mcg TQL-1055 free acid with PHAD liposomes, not statistically significant): trended higher
gE-specific IgG1 GMT compared to Group 7 (gE antigen [3]; mice, post dose 1, 50 mcg TQL-1055 free acid with PHAD liposomes): significantly higher
gE-specific IgG2c GMT compared to Group 7 (gE antigen [4]): significantly higher

B1: 5 mcg gE alone: VZV glycoprotein E (gE) antigen, 5 mcg, without adjuvant (protein, UniProt P09259 31-623, looked up)
Envelope glycoprotein E: SVLRYDDFHTDEDKLDTNSVYEPYYHSDHAESSWVNRGESSRKAYDHNSPYIWPRNDYDGFLENAHEHHGVYNQGRGIDSGERLMQPTQMSAQEDLGDDTGIHVIPTLNGDDRHKIVNVDQRQYGDVFKGDLNPKPQGQRLIEVSVEENHPFTLRAPIQRIYGVRYTETWSFLPSLTCTGDAAPAIQHICLKHTTCFQDVVVDVDCAENTKEDQLAEISYRFQGKKEADQPWIVVNTSTLFDELELDPPEIEPGVLKVLRTEKQYLGVYIWNMRGSDGTSTYATFLVTWKGDEKTRNPTPAVTPQPRGAEFHMWNYHSHVFSVGDTFSLAMHLQYKIHEAPFDLLLEWLYVPIDPTCQPMRLYSTCLYHPNAPQCLSHMNSGCTFTSPHLAQRVASTVYQNCEHADNYTAYCLGISHMEPSFGLILHDGGTTLKFVDTPESLSGLYVFVVYFNGHVEAVAYTVVSTVDHFVNAIEERGFPPTAGQPPATTKPKEITPVNPGTSPLLRYAAWTGGLAAVVLLCLVIFLICTAKRMRVKAYRVDKSPYNQSMYYAGLPVDDFEDSESTDTEEEFGNAIGGSHGGSSYTVYIDKTR
gE-specific total IgG titers post dose 2, GMT (gE antigen [2]; [6]): 949.8
gE-specific total IgG1 titers post dose 2, GMT (gE antigen [3]; [6]): 793.1
Day 13 Anti-gE GMT titer, 5 mcg PHAD in liposomes (gE antigen [1]; Day 13 (post Dose 1), with 5 mcg PHAD in liposomes): 19,037
Day 13 Anti-gE GMT titer, without PHAD liposomes (gE antigen [1]; Day 13 (post Dose 1), without PHAD liposomes): 135
Day 28 Anti-gE GMT titer, 5 mcg PHAD in liposomes (gE antigen [1]; Day 28 (post Dose 2), with 5 mcg PHAD in liposomes): 689,865
Day 28 Anti-gE GMT titer, without PHAD liposomes (gE antigen [1]; Day 28 (post Dose 2), without PHAD liposomes): 12,311
gE-specific total IgG titers post dose 1, Geometric mean (gE antigen [5]; serum Day 13 (post Dose 1)): 138.0
gE-specific total IgG titers post dose 2, Geometric mean (gE antigen [5]; serum Day 28 (post Dose 2)): 5012
